Tested on: catalytically inactive Cas9 (dCas9)
Assay: ChIP-qPCR of dCas9 binding at AAVS1 on-target and off-target sites in Hela cells
Assay type: cell-based
Conditions: AAVS1 on target and pre-determined off-target sites, two biological replicates, Fig. S9
Experimental: For ChIP experiments, low-passage Hela cells were seeded on to 15-cm plates at a density of 4 × 10^6 cells per plate. The next day, a total of 40.5 μg M13 G8PPD or M13 G8PFL plasmid, 20.25 μg 3×Flag-tagged dCas9 plasmid, and 20.25 μg sgRNA plasmid were transfected into cells using Lipofectamine 3000 (Invitrogen). Two biological replicates were performed for each condition. ChIP was performed with Simple ChIP Enzymatic Chromatin IP Kit (Cell Signaling Technology) following the manufacturer’s instructions. After 48 h, the cells were washed once with PBS, and 1.25 mL of 16% formaldehyde (Life Technologies) was added to 20 mL of serum-free DMEM for crosslinking to a final formaldehyde concentration of 1%. After 10 min of crosslinking at room temperature, the cells were harvested for the ChIP assay. The chromatin was sonicated using Branson digital sonifier for 10 cycles of “on/off” pulse with a 30-s interval. Fragmented chromatin was diluted and incubated with 2 μg anti-Flag Chip grade antibody (Sigma, USA) overnight at 4 °C. qPCR with immunoprecipitation-purified DNA as the template was used to analyze the effects of G8Ps on dCas9 binding at the on-target and off-target sites.

B1: M13 G8PFL: full-length M13 phage major coat protein G8P, expressed from plasmid in human cells (protein, UniProt P03619 1-74, looked up)
chain: MKKSVVAKIIAGSTLVIGSSAFAADDATSQAKAAFDSLTAQATEMSGYAWALVVLVVGATVGIKLFKKFVSRAS
modifications: full-length
notes: full-length M13 phage major coat protein G8P, expressed from plasmid in human cells
**Q.** How did the “binding specificity of dCas9 at on-target site” value turn out when B1 was run?
**A.** The value was “did not significantly improve”.

From publication PMC7045643, “Allosteric inhibition of CRISPR-Cas9 by bacteriophage-derived peptides” (Genome Biology, 2020)
